Reference: US20260201015A1 (University of Washington, published 2026)
Values joined by “and” are separate entries in the source; they are usually repeats but may differ in a detail not shown here. Identical values can stand only once. Blank lines part the entries; values can stand above or below the binder they belong to.

What was measured:
glucagon (GCG) [1] = biological target: T1, glucagon (GCG) (UniProt P01275 53-81, fluorescently labeled (FAM or TAMRA) in FP assays, site not stated; biotinylated in yeast display); experiment: fluorescence polarization
Description: (§1) Fluorescence polarization binding assays were carried out in 96-well plates (Corning 3686), with two-fold serial dilution of designed peptide binders in the presence of 0.5 nM fluorescently labeled peptide targets. Protein and peptide were diluted from their stock concentration into 20 mM Tris-HCl pH 8, 100 mM NaCl, 0.1% v/v Tween 20, and the protein was titrated in 2-fold serial dilutions onto constant peptide. After incubating the peptide and binder for one hour at room temperature, the fluorescence polarization was measured at the excitation and emission wavelengths of the FAM dye (485/530 nm) or the TAMRA dye (530/590 nm), in a Synergy Neo2 multi-mode plate reader. Titrations were conducted in replicate, and the Kd was fitted with SciPy¹⁸. Specifically, curves were fit to N observations of an observed signal, Signalᵢ, at titrated concentrations according to the following equation: […]

secretin (SCT) = biological target: T2, secretin (SCT) (UniProt P09683 28-54, fluorescently labeled (FAM or TAMRA) in FP assays, site not stated); experiment: fluorescence polarization
T2 peptide (looked up): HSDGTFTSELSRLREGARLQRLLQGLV
Description: as §1

glucagon (GCG) [2] = biological target: T1, glucagon (GCG); experiment: fluorescence polarization titration (FIG. 6a)
Description: as §1

neuropeptide Y (NPY) [3] = biological target: T3, neuropeptide Y (NPY) (UniProt P01303 29-64, fluorescently labeled (FAM or TAMRA) in FP assays, site not stated; biotinylated in yeast display); experiment: fluorescence polarization
Description: as §1

peptide YY (PYY) = peptide YY (PYY) (UniProt P10082 29-64, limits assumed, fluorescently labeled (FAM or TAMRA) in FP assays, site not stated); experiment: fluorescence polarization
Description: as §1

BIM BH3 peptide (Bim) = biological target: T4, BIM BH3 peptide (Bim) (UniProt O43521 141-166, limits assumed, fluorescently labeled (FAM or TAMRA) in FP assays, site not stated; biotinylated in yeast display); experiment: fluorescence polarization
T4 construct: domain: BH3
Description: as §1

[4] = biological target: T5, parathyroid hormone (PTH) peptide (UniProt P01270 32-65, limits assumed, TAMRA label in FP assays (PTH-TAMRA), site not stated; biotinylated in yeast display); experiment: fluorescence polarization, binder titrated onto labeled peptide
T5 construct: In the NanoBiT assay the peptide was genetically fused to lgBiT; also called PTH-TAMRA peptide
T5 peptide (looked up): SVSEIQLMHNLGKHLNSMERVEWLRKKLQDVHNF
Description: as §1

[5] = biological target: T5, parathyroid hormone (PTH) peptide; experiment: FP against the NanoBiT estimate for the starting parametric binder
neuropeptide Y (NPY) [6] = biological target: T3, neuropeptide Y (NPY); experiment: fluorescence polarization titration (FIG. 6b)
Description: as §1

[7] = biological target: T6, Glucagon-like peptide 1 (GLP1) (UniProt P01275 98-128, fluorescently labeled (FAM or TAMRA) in FP assays, site not stated); experiment: fluorescence polarization (FIG. 7a)
T6 peptide (looked up): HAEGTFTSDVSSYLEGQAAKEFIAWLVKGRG
Description: as §1

[8] = biological target: T6, Glucagon-like peptide 1 (GLP1); experiment: fluorescence polarization titration
Description: as §1

[9] = biological target: T7, Gastric inhibitory polypeptide (GIP) (UniProt P09681 52-93, fluorescently labeled (FAM or TAMRA) in FP assays, site not stated); experiment: fluorescence polarization (FIG. 7b)
T7 peptide (looked up): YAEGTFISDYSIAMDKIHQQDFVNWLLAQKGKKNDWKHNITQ
Description: as §1

[10] = biological target: T7, Gastric inhibitory polypeptide (GIP); experiment: fluorescence polarization titration
Description: as §1

[11] = biological target: T5, parathyroid hormone (PTH) peptide; experiment: fluorescence polarization
Description: as §1

[12] = biological target: PTH related peptide (PTHrp) (UniProt P12272 37-70, limits assumed, fluorescently labeled (FAM or TAMRA) in FP assays, site not stated); experiment: fluorescence polarization
Description: as §1

T1 sequence (P01275 53-81 limits assumed): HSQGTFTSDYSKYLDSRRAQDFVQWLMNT
Sequence of peptide YY (PYY) (P10082 29-64 limits assumed): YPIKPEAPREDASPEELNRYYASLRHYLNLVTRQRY
Sequence of PTH related peptide (PTHrp) (P12272 37-70 limits assumed): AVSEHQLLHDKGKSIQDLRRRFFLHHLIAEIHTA
T4 sequence (O43521 141-166 limits assumed): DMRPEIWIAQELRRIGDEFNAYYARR

- Kd (glucagon (GCG) [1]): 12 nM
- fold selectivity for SCT over GCG (glucagon (GCG) [1]): 4 fold
- Kd (secretin (SCT)): 3.95 nM and 2.7 nM
B1: SCT_A02 (Sequence threading), threaded SCT binder, SEQ ID NO: 5 (designed binder)
chain: SEELEERLREARERLEEARERLEEAREEGDLREMARALLEEARAVLEIARVAAEAGDDEALREAARRAGEVIRRAGEVGLRAAEEGDTETIREAMLAILEAQRASAVIALHLARDDPEVAEALRVIERLLRTAERALREGQLEVARLATEAVEALADAILRAREIGRPELVREAARLAEEARRLLEAALEALRAGDEEGARERLARARELIREIRERVRRA
notes: also called SCT design

- Kd (glucagon (GCG) [2]): 231 nM
B2: GCG_A04 (RFjoint), inpainted GCG binder, SEQ ID NO: 3 (designed binder)
chain: MLDELFSLLNKMFELSDKYRELRKELRKAIESGAPEEELRELLEKMLEIAKKLLELTKELKKLVEDVLKNNPDPVERAKAVLLYAVGVHILYSESSELEVIAERLGFKDIAEKAKEIADKARELKEEVKRKLREIREEVPDPEIRKAAEEAIEMLESNDKRLKEFRKL

- Kd (neuropeptide Y (NPY) [3]): 5.29 nM and 5.6 nM
- binding result (peptide YY (PYY)): no binding
B3: NPY_C5 (RF Diffusion/Partial diffusion), partially diffused NPY binder, SEQ ID NO: 9 (designed binder)
chain: GMEERRKELLEKLKKLKEEVVELFRELAQALRDGASKERLEEIRERAEKLAEEAKKVAEELEKLAEGDAVLQLYLAEAYALEAAALTIEAVAAAELGASKEELEKIKEKIEEALKKAEEAMKKALAEAKARGRERLVRLIEEARKEFEKLSKAIKELLEQV

- Kd (BIM BH3 peptide (Bim)): < 0.5 nM
B4: BIM_E09 (RF Diffusion), fully diffused Bim binder, SEQ ID NO: 11 (designed binder)
chain: EEERKEKREKVRAGLKRAIAELPAEVAARCLALLDDASDEEFIEAVLEVLEAMREALVAMAREGRLDAVRRATSHINEVLVDAAELALEKGREYFRRLCLIVCDMMIELIRLEPEQTPELRRIRERLEEIRRRLE

- Kd [4]: 6.1 nM
- fold improvement in affinity over the starting PTH binder [5]: ~1000 fold
B5: PTH_B10 (RFjoint), inpainted PTH binder, SEQ ID NO: 2 (designed binder)
chain: SFELLEKLIELSKELYEVAKKYIETGDPELKKKLEEILKKIEEAYKELLESDAHPLEKALAKLILAEAYVVKSFAYISSGKDLEKAQEYLDKAKEILEELLKLLEELKKEETDPEKLEIIEELEKIAEELLKEIEE
notes: Expressed in E. coli, purified on Ni-NTA and by SEC

- Kd (neuropeptide Y (NPY) [6]): 3500 nM
B6: NPY_A9 (RFjoint), inpainted NPY binder, SEQ ID NO: 4 (designed binder)
chain: GAAEKLAELYEKFKALREKALEVLKKAVEALENKADKETLLKLIKELKELAEKFEELAEEFERNAGESTTASLNATAAYMARIGLLAALLALAKAAGVPEEELEEIKRRIEETAKRAIEAAERLKALAEARGDTKHVAVGVEAVRMATELYELAQKIIDAF

- Kd [7]: < 100 nM
- Kd [8]: 68.8 nM
B7: GLP1_B04 (Sequence threading), SEQ ID NO: 7 (designed binder)
chain: SPEEEARRAAREAERAAREAREAARRLGDEESVRVAERLEREARRAERERDLELARRVLRAAEALRLALEGELLAREQGDELGVVVARMITLAARDSALGRGTPELARLLLRVARALLEGDLEEVVRSLAEIAKREIGTERALLAVEAIKLVALESIEEGDFETAELAIEKLREIAEEFEGTEVAEKAREAIEEIEKKKREAE

- binding result (glucagon (GCG) [1]): binds
- fold weaker binding to SCT than to GCG (secretin (SCT)): 10 fold
B8: GCG_C09 (RF Diffusion/Partial diffusion), partially diffused GCG binder, SEQ ID NO: 8 (designed binder)
chain: SMEKLAEIMQEIIEAYQEVKDAFFKFIKAVHEGAPEEELKKYLEKMKEALEKMKELLERLEKEAKKVIEENKDKKLELKVLLMLRLAYLLLKVSIELTKIAAEKLGDKELVEELEKESKEVEKKIKELEERIKKLLEEVDDEELKEAYKEVEEMEKEAEKFLEKMRKV

- Kd (peptide YY (PYY)): 24.5 nM
B9: PPY_A04 (RF Diffusion_flex), flexibly diffused PYY binder, SEQ ID NO: 12 (designed binder)
chain: GLEEAEKLLEEIFANFEEIVELIKKNIGTERGKKLLKVFVATVDLILARLEQGADLAELAELVKEIAELAKDEEGLEEAEKLVKELTAAR

- Kd [9]: < 100 nM
- Kd [10]: 6.96 nM
B10: GIP_A08 (Sequence threading), SEQ ID NO: 6 (designed binder)
chain: SPKEKAERLIKEAKEAAEKAKEAAERSGLEEAKKAAEELTKLLEEAAARVAADPEDETKLRALEKIVEAAKEAVKALEVAIESGDEQLIRAALSLVEAAVHLAKALLAKPESPLVDFGFELLKLAAKTLAAYAEGEDVDKIALKLKAISAMAEALRLALAGDLERAARAAEEAVRYAIEAGDKELLRLAAEVAAYIARLAEEAGLEEVARRAREAAERAREAAK

- Kd [11]: < 0.5 nM
- binding result [12]: no binding
B11: PTH_D08, fully diffused PTH binder (RF Diffusion), SEQ ID NO: 10 (designed binder)
chain: MREKLEEMLEEFNEVIDELIEITKEDAPELEELRERAEEAVENERLDELEEILDELEVIILEAMFRDLSAAIEMTKAKNDKEKLKELLKQLEELEKRIKELLERAKKRGNKKIIEKLEKLLKEVEKLKKEIEEYLK
